Data as given in the Human Domainome abundance scans (Beltran et al. 2025).
± gives the uncertainty stated by the source.

test: abundance fitness (aPCA) (normalised: wild type 0, dead -1); higher = more abundant; growth selection in yeast, the domain comes from the species named; conditions: Homo sapiens

“Transcriptional activator Myb Q200T, P10242” and “Transcriptional activator Myb P174R, P10242” are within error of each other in abundance fitness: -0.135 ± 0.072 for the first, -0.251 ± 0.052 for the second.

Going from “Transcriptional activator Myb T177E, P10242” to “Transcriptional activator Myb D178N, P10242”, the abundance fitness falls from -0.013 ± 0.069 to -0.533 ± 0.35.

“Transcriptional activator Myb L173M, P10242” and “Transcriptional activator Myb W185V, P10242” are within error of each other in abundance fitness: -0.305 ± 0.12 for the first, -0.246 ± 0.053 for the second.

“Transcriptional activator Myb R191G, P10242” and “Transcriptional activator Myb N186H, P10242” are within error of each other in abundance fitness: -0.038 ± 0.068 for the first, -0.139 ± 0.19 for the second.

“Transcriptional activator Myb E201W, P10242” and “Transcriptional activator Myb A180D, P10242” are within error of each other in abundance fitness: -0.204 ± 0.08 for the first, -0.022 ± 0.12 for the second.

“Transcriptional activator Myb A170K, P10242” and “Transcriptional activator Myb E168P, P10242” are within error of each other in abundance fitness: -0.581 ± 0.14 for the first, -0.833 ± 0.13 for the second.

Going from “Transcriptional activator Myb T145N, P10242” to “Transcriptional activator Myb A170T, P10242”, the abundance fitness falls from -0.179 ± 0.26 to -0.771 ± 0.12.

Going from “Transcriptional activator Myb S202V, P10242” to “Transcriptional activator Myb I181R, P10242”, the abundance fitness falls from -0.001 ± 0.064 to -0.933 ± 0.081.

Going from “Transcriptional activator Myb I181F, P10242” to “Transcriptional activator Myb K171H, P10242”, the abundance fitness rises from -1.16 ± 0.38 to -0.207 ± 0.28.

“Transcriptional activator Myb G175V, P10242” and “Transcriptional activator Myb I155E, P10242” are within error of each other in abundance fitness: -0.409 ± 0.066 for the first, -0.521 ± 0.092 for the second.

“Transcriptional activator Myb Q195W, P10242” and “Transcriptional activator Myb D152W, P10242” are within error of each other in abundance fitness: -0.282 ± 0.14 for the first, -0.403 ± 0.098 for the second.

First: Transcriptional activator Myb L173D, P10242
Second: Transcriptional activator Myb G175A, P10242
The abundance fitness of the first is lower: -0.958 ± 0.22 for the first, -0.085 ± 0.058 for the second.

“Transcriptional activator Myb M189V, P10242” and “Transcriptional activator Myb G175S, P10242” are within error of each other in abundance fitness: -0.02 ± 0.064 for the first, -0.13 ± 0.074 for the second.

First: Transcriptional activator Myb I181L, P10242
Second: Transcriptional activator Myb Q200P, P10242
The abundance fitness of the first is lower: -0.365 ± 0.094 for the first, 0.005 ± 0.1 for the second.

First: Transcriptional activator Myb K204M, P10242
Second: Transcriptional activator Myb L172P, P10242
The abundance fitness of the first is higher: -0.111 ± 0.11 for the first, -0.486 ± 0.19 for the second.

Compared with “Transcriptional activator Myb K144S, P10242”, “Transcriptional activator Myb K144P, P10242” is lower in abundance fitness: 0.067 ± 0.085 for the first, -0.269 ± 0.11 for the second.

“Transcriptional activator Myb S202T, P10242” and “Transcriptional activator Myb T188E, P10242” are within error of each other in abundance fitness: 0.012 ± 0.11 for the first, 0.016 ± 0.056 for the second.

“Transcriptional activator Myb R190C, P10242” and “Transcriptional activator Myb E196V, P10242” are within error of each other in abundance fitness: -0.117 ± 0.18 for the first, -0.121 ± 0.092 for the second.

First: Transcriptional activator Myb E150V, P10242
Second: Transcriptional activator Myb K204T, P10242
The abundance fitness of the first is lower: -0.207 ± 0.061 for the first, -0.012 ± 0.13 for the second.

“Transcriptional activator Myb S202L, P10242” and “Transcriptional activator Myb K204E, P10242” are within error of each other in abundance fitness: -0.181 ± 0.073 for the first, -0.062 ± 0.11 for the second.

Compared with “Transcriptional activator Myb G163R, P10242”, “Transcriptional activator Myb I154P, P10242” is lower in abundance fitness: -0.422 ± 0.059 for the first, -0.807 ± 0.12 for the second.

“Transcriptional activator Myb N186L, P10242” and “Transcriptional activator Myb A180Q, P10242” are within error of each other in abundance fitness: -0.016 ± 0.071 for the first, -0.002 ± 0.12 for the second.

“Transcriptional activator Myb E168H, P10242” and “Transcriptional activator Myb R176T, P10242” are within error of each other in abundance fitness: -0.548 ± 0.36 for the first, -0.223 ± 0.096 for the second.

“Transcriptional activator Myb A180H, P10242” and “Transcriptional activator Myb A170M, P10242” are within error of each other in abundance fitness: -0.23 ± 0.097 for the first, -0.393 ± 0.11 for the second.

“Transcriptional activator Myb K171I, P10242” and “Transcriptional activator Myb E150T, P10242” are within error of each other in abundance fitness: -0.141 ± 0.12 for the first, -0.103 ± 0.1 for the second.

Going from “Transcriptional activator Myb I154H, P10242” to “Transcriptional activator Myb R153Q, P10242”, the abundance fitness rises from -0.59 ± 0.12 to -0.031 ± 0.092.

First: Transcriptional activator Myb G163W, P10242
Second: Transcriptional activator Myb Y198I, P10242
The abundance fitness of the first is lower: -0.602 ± 0.084 for the first, 0.093 ± 0.12 for the second.

Going from “Transcriptional activator Myb I155Q, P10242” to “Transcriptional activator Myb K143G, P10242”, the abundance fitness rises from -0.786 ± 0.13 to -0.06 ± 0.059.

Compared with “Transcriptional activator Myb H184P, P10242”, “Transcriptional activator Myb E194T, P10242” is higher in abundance fitness: -0.81 ± 0.098 for the first, -0.001 ± 0.12 for the second.

First: Transcriptional activator Myb A167F, P10242
Second: Transcriptional activator Myb W166S, P10242
The abundance fitness of the first is higher: -0.092 ± 0.12 for the first, -0.615 ± 0.091 for the second.

Compared with “Transcriptional activator Myb W166L, P10242”, “Transcriptional activator Myb S202D, P10242” is higher in abundance fitness: -0.986 ± 0.14 for the first, -0.069 ± 0.087 for the second.

First: Transcriptional activator Myb A170R, P10242
Second: Transcriptional activator Myb I154T, P10242
The abundance fitness of the first is lower: -0.516 ± 0.059 for the first, -0.185 ± 0.077 for the second.

Compared with “Transcriptional activator Myb E201A, P10242”, “Transcriptional activator Myb W147Q, P10242” is lower in abundance fitness: -0.094 ± 0.076 for the first, -0.593 ± 0.055 for the second.

“Transcriptional activator Myb Q195K, P10242” and “Transcriptional activator Myb T145P, P10242” are within error of each other in abundance fitness: -0.388 ± 0.41 for the first, -0.212 ± 0.12 for the second.

“Transcriptional activator Myb E201F, P10242” and “Transcriptional activator Myb P174K, P10242” are within error of each other in abundance fitness: -0.521 ± 0.35 for the first, -0.086 ± 0.11 for the second.

“Transcriptional activator Myb E201S, P10242” and “Transcriptional activator Myb A167I, P10242” are within error of each other in abundance fitness: -0.105 ± 0.1 for the first, -0.253 ± 0.22 for the second.

Compared with “Transcriptional activator Myb Q195E, P10242”, “Transcriptional activator Myb E151V, P10242” is lower in abundance fitness: 0.006 ± 0.15 for the first, -0.466 ± 0.074 for the second.

First: Transcriptional activator Myb S187Q, P10242
Second: Transcriptional activator Myb K143Y, P10242
The abundance fitness of the first is higher: 0.125 ± 0.11 for the first, -0.201 ± 0.16 for the second.

Compared with “Transcriptional activator Myb Q200A, P10242”, “Transcriptional activator Myb N179W, P10242” is lower in abundance fitness: 0.011 ± 0.068 for the first, -0.169 ± 0.066 for the second.

“Transcriptional activator Myb K143D, P10242” and “Transcriptional activator Myb R176V, P10242” are within error of each other in abundance fitness: -0.192 ± 0.19 for the first, -0.22 ± 0.066 for the second.

Compared with “Transcriptional activator Myb E168K, P10242”, “Transcriptional activator Myb K182M, P10242” is higher in abundance fitness: -0.279 ± 0.11 for the first, 0.037 ± 0.085 for the second.

First: Transcriptional activator Myb A170L, P10242
Second: Transcriptional activator Myb E201Y, P10242
The abundance fitness of the first is lower: -0.743 ± 0.082 for the first, -0.377 ± 0.14 for the second.

“Transcriptional activator Myb N183W, P10242” and “Transcriptional activator Myb A167N, P10242” are within error of each other in abundance fitness: -0.198 ± 0.084 for the first, -0.058 ± 0.11 for the second.

Going from “Transcriptional activator Myb W185S, P10242” to “Transcriptional activator Myb K144H, P10242”, the abundance fitness rises from -0.648 ± 0.083 to -0.232 ± 0.12.

“Transcriptional activator Myb S203A, P10242” and “Transcriptional activator Myb Y198P, P10242” are within error of each other in abundance fitness: -0.01 ± 0.085 for the first, 0.016 ± 0.14 for the second.

“Transcriptional activator Myb E150I, P10242” and “Transcriptional activator Myb A167C, P10242” are within error of each other in abundance fitness: -0.172 ± 0.12 for the first, -0.17 ± 0.12 for the second.

Going from “Transcriptional activator Myb W147F, P10242” to “Transcriptional activator Myb S203H, P10242”, the abundance fitness falls from 0.081 ± 0.038 to -0.264 ± 0.12.

“Transcriptional activator Myb R191N, P10242” and “Transcriptional activator Myb N183K, P10242” are within error of each other in abundance fitness: -0.07 ± 0.13 for the first, -0.192 ± 0.099 for the second.

Compared with “Transcriptional activator Myb S203F, P10242”, “Transcriptional activator Myb G175E, P10242” is higher in abundance fitness: -0.29 ± 0.1 for the first, 0.023 ± 0.079 for the second.

“Transcriptional activator Myb Y156W, P10242” and “Transcriptional activator Myb A167Y, P10242” are within error of each other in abundance fitness: -0.074 ± 0.046 for the first, -0.172 ± 0.12 for the second.

Compared with “Transcriptional activator Myb W166G, P10242”, “Transcriptional activator Myb E194S, P10242” is higher in abundance fitness: -0.543 ± 0.056 for the first, -0.161 ± 0.1 for the second.

Compared with “Transcriptional activator Myb R190K, P10242”, “Transcriptional activator Myb I155N, P10242” is lower in abundance fitness: 0.137 ± 0.12 for the first, -0.645 ± 0.17 for the second.

Going from “Transcriptional activator Myb T177Y, P10242” to “Transcriptional activator Myb G197D, P10242”, the abundance fitness rises from -0.558 ± 0.17 to -0.09 ± 0.13.

“Transcriptional activator Myb E201L, P10242” and “Transcriptional activator Myb S202C, P10242” are within error of each other in abundance fitness: -0.158 ± 0.097 for the first, -0.108 ± 0.1 for the second.
